According to paper PMC3950512:

Key:
Test in all cases: purified protein
Details in all cases: 25°C, 50 mM Tris-HCl pH 8.0, 10 mM MgCl2
[1] = tested on: C[N+]1(C)CCC[C@@H]1C(=O)[O-]
[2] = tested on: C[N+]1(C)CCC[C@@H]1C(=O)[O-]; type: biochemical, Cereibacter sphaeroides
[3] = tested on: C[N+]1(C)C[C@H](O)C[C@H]1C(=O)[O-]

## pdHpbD (Paracoccus denitrificans PD1222)
[1]
  Km: 7.3 ± 3 mM
  kcat: 28 ± 6 s⁻¹
  kcat/Km: 3800 M⁻¹ s⁻¹

## rsHpbD (Cereibacter sphaeroides 2.4.1)
[2]
  Km: 11 ± 4 mM
  kcat: 4.3 ± 0.6 s⁻¹
  kcat/Km: 390 M⁻¹ s⁻¹
[3]
  Km: 16 ± 7 mM
  kcat: 70 ± 7 s⁻¹
  kcat/Km: 4300 M⁻¹ s⁻¹
